Bridge positions count the residues as written; N and C are the ends. Ends that are not written are not given here.
Target: TAB-XC154 자가면역항체
Assay: competition: XC154 antibody (100 ng) pre-incubated with 10^11 or 10^12 XC154p1 phage, then flow cytometry on HepG2 or LnCap-LN3 cells

- percent inhibition: > 90%
Binder: CLPSWFHRC (disulfide 1-9 (inferred); also: displayed on phage) [XC154p1 에피토프 발현 파아지 (…)]

Reference: patent KR20120134547A
